# Test results: article doi:10.1101/2025.04.17.649292
# Target: poly-L-proline (PLP) coupled to Sepharose 4B
# Assay: affinity chromatography on poly-L-proline Sepharose
substance,measurement,value
"GST-δLdPfn (LdPfn with amino acids 110 to 128 deleted, N-terminal GST tag) (natural protein)",reduction of binding to PLP relative to GST-LdPfn,30%
